Source: patent publication US20200297760A1, “COMPOSITIONS AND METHODS FOR REDUCING IMMUNE RESPONSES AGAINST CHIMERIC ANTIGEN RECEPTORS” (Juno Therapeutics, Inc., priority 2015, published 2020)

Each binder was assayed against HLA-A*02:01 (human) (assay: REVEAL MHC-peptide binding assay, recombinant HLA). Conditions: remark: other sources report otherwise.
IIFWVQRGA […, listing 1 of 2 here] gave an In Vitro Score (% of positive control peptide) of 95.3. With VAFIIFWVS […, listing 1 of 2 here] the In Vitro Score (% of positive control peptide) was 70.6. IFWVKRGAK […, listing 1 of 2 here] gave an In Vitro Score (% of positive control peptide) of 13.8. IFWVQRGNK […, listing 1 of 2 here] gave an In Vitro Score (% of positive control peptide) of 16.1. For VAFIIFWVK […, listing 1 of 2 here], the In Vitro Score (% of positive control peptide) was 0.7. WVQRGNKKL […, listing 1 of 2 here] gave an In Vitro Score (% of positive control peptide) of 4.3. IFWVKRGHK […, listing 1 of 2 here] gave an In Vitro Score (% of positive control peptide) of 2.2. Work on IFWVQRGAK […, listing 1 of 2 here] yielded an In Vitro Score (% of positive control peptide) of 11.7. WVKRGHKKL […, listing 1 of 2 here] gave an In Vitro Score (% of positive control peptide) of 3.9. With WVKRGAKKL […, listing 1 of 2 here] the In Vitro Score (% of positive control peptide) was 4.7. With IFWVKRGNK […, listing 1 of 2 here] the In Vitro Score (% of positive control peptide) was 3.5. Work on WVKRGNKKL […, listing 1 of 2 here] yielded an In Vitro Score (% of positive control peptide) of 2.4. IIFWVKRGA […, listing 1 of 2 here] showed an In Vitro Score (% of positive control peptide) of 85.9.

The binders below were run against HLA-A*03:01 (human) (assay: REVEAL MHC-peptide binding assay, recombinant HLA). Conditions: remark: other sources report otherwise.
For WVARGRKKL […, listing 1 of 2 here], the In Vitro Score (% of positive control peptide) was 1.3. IIFWVQRGA […, listing 1 of 2 here] showed an In Vitro Score (% of positive control peptide) of 2.7. Work on VAFIIFWVS […, listing 1 of 2 here] yielded an In Vitro Score (% of positive control peptide) of 0.7. Binder IIFWVKRGN […, listing 1 of 2 here] has an In Vitro Score (% of positive control peptide) of 4.3. Work on IFWVKRGAK […, listing 1 of 2 here] yielded an In Vitro Score (% of positive control peptide) of 22. IFWVQRGNK […, listing 1 of 2 here] gave an In Vitro Score (% of positive control peptide) of 23.2. IIFWVARGR […, listing 1 of 2 here] showed an In Vitro Score (% of positive control peptide) of 18.6. Binder VAFIIFWVK […, listing 1 of 2 here] has an In Vitro Score (% of positive control peptide) of 1.5. With WVQRGRKKL […, listing 1 of 2 here] the In Vitro Score (% of positive control peptide) was 4.9. In the case of IIFWVLRGR […, listing 1 of 2 here], the In Vitro Score (% of positive control peptide) is reported as 2.8. WVQRGNKKL […, listing 1 of 2 here] showed an In Vitro Score (% of positive control peptide) of 1.5. In the case of IFWVQRGAK […, listing 1 of 2 here], the In Vitro Score (% of positive control peptide) is reported as 17. WVKRGHKKL […, listing 1 of 2 here] gave an In Vitro Score (% of positive control peptide) of 1.4. For WVKRGAKKL […, listing 1 of 2 here], the In Vitro Score (% of positive control peptide) was 4.1. Work on WVKRGNKKL […, listing 1 of 2 here] yielded an In Vitro Score (% of positive control peptide) of 0.9. In the case of IIFWVKRGA […, listing 1 of 2 here], the In Vitro Score (% of positive control peptide) is reported as 42.9.

What follows are binders tested against HLA-A*11:01 (recombinant MHC class I molecule) (human) (assay: REVEAL MHC-peptide binding assay, recombinant HLA-A*11:01). Conditions: remark: other sources report otherwise.
For WVKRGAKKL [Synthetic peptide …, listing 2 of 2 here], the In Vitro Score (score, % of positive control peptide) was 4.6. In the case of WVQRGRKKL [Synthetic peptide …, listing 2 of 2 here], the In Vitro Score (score, % of positive control peptide) is reported as 12.8. WVKRGSKKL was tested, and the In Vitro Score (score, % of positive control peptide) was 11.8. Binder IFWVKRGAK [Synthetic peptide …, listing 2 of 2 here] has an In Vitro Score (score, % of positive control peptide) of 69.7. For IFWVSRGRK, the In Vitro Score (score, % of positive control peptide) was 39.2. Binder IFWVKRGNK [Synthetic peptide …, listing 2 of 2 here] has an In Vitro Score (score, % of positive control peptide) of 45.9. In the case of IIFWVQRGR, the In Vitro Score (score, % of positive control peptide) is reported as 72.8. VAFIIFWVK [Synthetic peptide …, listing 2 of 2 here] showed an In Vitro Score (score, % of positive control peptide) of 109. In the case of IFWVKRGLK, the In Vitro Score (score, % of positive control peptide) is reported as 61.1. In the case of IIFWVARGR [Synthetic peptide …, listing 2 of 2 here], the In Vitro Score (score, % of positive control peptide) is reported as 70.6. AFIIFWVAR showed an In Vitro Score (score, % of positive control peptide) of 51.8. IFWVARGRK showed an In Vitro Score (score, % of positive control peptide) of 34.9. Work on IIFWVKRGL yielded an In Vitro Score (score, % of positive control peptide) of 32.4. IIFWVKRGA [Synthetic peptide …, listing 2 of 2 here] showed an In Vitro Score (score, % of positive control peptide) of 22.6. WVKRGNKKL [Synthetic peptide …, listing 2 of 2 here] was tested, and the In Vitro Score (score, % of positive control peptide) was 4.1. IFWVQRGRK showed an In Vitro Score (score, % of positive control peptide) of 128. With VAFIIFWVS [Synthetic peptide …, listing 2 of 2 here] the In Vitro Score (score, % of positive control peptide) was 25.1. IIFWVLRGR [Synthetic peptide …, listing 2 of 2 here] was tested, and the In Vitro Score (score, % of positive control peptide) was 35.2. Binder IFWVKRGSK has an In Vitro Score (score, % of positive control peptide) of 47.9. IIFWVKRGN [Synthetic peptide …, listing 2 of 2 here] gave an In Vitro Score (score, % of positive control peptide) of 42.1. Binder IIFWVKRGR has an In Vitro Score (score, % of positive control peptide) of 54.5. Work on WVQRGNKKL [Synthetic peptide …, listing 2 of 2 here] yielded an In Vitro Score (score, % of positive control peptide) of 10.7. In the case of IFWVQRGAK [Synthetic peptide …, listing 2 of 2 here], the In Vitro Score (score, % of positive control peptide) is reported as 61.3. WVARGRKKL [Synthetic peptide …, listing 2 of 2 here] showed an In Vitro Score (score, % of positive control peptide) of 13.8. Binder IIFWVSRGR has an In Vitro Score (score, % of positive control peptide) of 68.9. Binder FIIFWVHRG has an In Vitro Score (score, % of positive control peptide) of 0.9. Binder IFWVHRGRK has an In Vitro Score (score, % of positive control peptide) of 36.6. Work on IFWVQRGNK [Synthetic peptide …, listing 2 of 2 here] yielded an In Vitro Score (score, % of positive control peptide) of 67.5. Binder AFIIFWVSR has an In Vitro Score (score, % of positive control peptide) of 54. Binder WVKRGHKKL [Synthetic peptide …, listing 2 of 2 here] has an In Vitro Score (score, % of positive control peptide) of 2.8. IIFWVHRGR was tested, and the In Vitro Score (score, % of positive control peptide) was 77.5. Work on IIFWVQRGA [Synthetic peptide …, listing 2 of 2 here] yielded an In Vitro Score (score, % of positive control peptide) of 56.5. In the case of AFIIFWVHR, the In Vitro Score (score, % of positive control peptide) is reported as 34.9. Binder IFWVKRGHK [Synthetic peptide …, listing 2 of 2 here] has an In Vitro Score (score, % of positive control peptide) of 30.9.

The binders below were run against HLA-B*08:01 (recombinant MHC class I molecule) (human) (assay: REVEAL MHC-peptide binding assay, recombinant HLA-B*08:01). Conditions: remark: other sources report otherwise.
Work on WVKRGAKKL [Synthetic peptide …, listing 2 of 2 here] yielded an In Vitro Score (score, % of positive control peptide) of 34.1. Work on WVQRGRKKL [Synthetic peptide …, listing 2 of 2 here] yielded an In Vitro Score (score, % of positive control peptide) of 45.1. WVKRGSKKL was tested, and the In Vitro Score (score, % of positive control peptide) was 56.1. IFWVKRGAK [Synthetic peptide …, listing 2 of 2 here] was tested, and the In Vitro Score (score, % of positive control peptide) was 2.2. With IFWVSRGRK the In Vitro Score (score, % of positive control peptide) was 0. Work on IFWVKRGNK [Synthetic peptide …, listing 2 of 2 here] yielded an In Vitro Score (score, % of positive control peptide) of 0.1. IIFWVKRGS showed an In Vitro Score (score, % of positive control peptide) of 0.4. For IIFWVQRGR, the In Vitro Score (score, % of positive control peptide) was 0.1. VAFIIFWVK [Synthetic peptide …, listing 2 of 2 here] gave an In Vitro Score (score, % of positive control peptide) of 0.3. With IFWVKRGLK the In Vitro Score (score, % of positive control peptide) was 58.3. In the case of IIFWVARGR [Synthetic peptide …, listing 2 of 2 here], the In Vitro Score (score, % of positive control peptide) is reported as 0.3. For AFIIFWVAR, the In Vitro Score (score, % of positive control peptide) was 0.2. Binder IFWVARGRK has an In Vitro Score (score, % of positive control peptide) of 0. IIFWVKRGL was tested, and the In Vitro Score (score, % of positive control peptide) was 1.7. With IIFWVKRGA [Synthetic peptide …, listing 2 of 2 here] the In Vitro Score (score, % of positive control peptide) was 0.9. Binder WVKRGNKKL [Synthetic peptide …, listing 2 of 2 here] has an In Vitro Score (score, % of positive control peptide) of 65.9. With IFWVQRGRK the In Vitro Score (score, % of positive control peptide) was 0. Binder VAFIIFWVS [Synthetic peptide …, listing 2 of 2 here] has an In Vitro Score (score, % of positive control peptide) of 0.1. With IIFWVLRGR [Synthetic peptide …, listing 2 of 2 here] the In Vitro Score (score, % of positive control peptide) was 0.4. IFWVKRGSK was tested, and the In Vitro Score (score, % of positive control peptide) was 1.2. IIFWVKRGN [Synthetic peptide …, listing 2 of 2 here] showed an In Vitro Score (score, % of positive control peptide) of 0.9. Binder IIFWVKRGR has an In Vitro Score (score, % of positive control peptide) of 0. With WVQRGNKKL [Synthetic peptide …, listing 2 of 2 here] the In Vitro Score (score, % of positive control peptide) was 32. IFWVQRGAK [Synthetic peptide …, listing 2 of 2 here] gave an In Vitro Score (score, % of positive control peptide) of 0.2. For WVARGRKKL [Synthetic peptide …, listing 2 of 2 here], the In Vitro Score (score, % of positive control peptide) was 32.4. For IIFWVSRGR, the In Vitro Score (score, % of positive control peptide) was 0. Binder FIIFWVHRG has an In Vitro Score (score, % of positive control peptide) of 0.2. In the case of IFWVHRGRK, the In Vitro Score (score, % of positive control peptide) is reported as 0.1. IFWVQRGNK [Synthetic peptide …, listing 2 of 2 here] gave an In Vitro Score (score, % of positive control peptide) of 0.1. AFIIFWVSR was tested, and the In Vitro Score (score, % of positive control peptide) was 0.3. With WVKRGHKKL [Synthetic peptide …, listing 2 of 2 here] the In Vitro Score (score, % of positive control peptide) was 47.6. IIFWVHRGR gave an In Vitro Score (score, % of positive control peptide) of 0.2. IIFWVQRGA [Synthetic peptide …, listing 2 of 2 here] showed an In Vitro Score (score, % of positive control peptide) of 0.2. Binder AFIIFWVHR has an In Vitro Score (score, % of positive control peptide) of 0.3. For IFWVKRGHK [Synthetic peptide …, listing 2 of 2 here], the In Vitro Score (score, % of positive control peptide) was 3.2.
